The text below walks through data of patent US8119589B2, “Modulation of CD4+ T cell responses by a tick saliva protein, Salp15 and polypeptides derived therefrom” (University of North Carolina at Charlotte, priority 2004, dated 2012).

The target in one test is T1, sCD4 (Homo sapiens, UniProt P01730).
T1 construct: the extracellular four domains of CD4 (sCD4); purchased Research Diagnostics Inc., Flanders, N.J., U.S.A
As to the kind of experiment: Microtiter binding of sCD4-HRP to plate-bound Salp15 and synthetic peptides. The settings on record: plate-bound Salp15 pre-treated with 10 mM DTT. The procedure: Purified sCD4 was coated overnight at 4° C. at the indicated concentrations in 0.1M sodium carbonate buffer (pH 9.5) in 96 well plates. Equimolar amounts of lysozyme were used as a non-specific control. The wells were washed, blocked with 10% FCS/PBS for 1 hr at R.T., and incubated with Salp15 (0.4 μM) for 2 hr at 37° C. Salp15 binding was detected by incubation with horseradish peroxidase (HRP)-conjugated anti-His antibody for 1 hr followed by microwell peroxidase substrate (KPL). The reaction was stopped by adding TMB stop solution (KPL). Chemically synthesized overlapping peptides of Salp15 were purchased from GenScript Corporation (Piscataway, N.J., U.S.A). To study the binding of Salp15 and peptides to sCD4, Salp15 (5 μg) and different peptides (0.5 μg) were coated. The wells were washed and blocked prior to incubation with sCD4-HRP (Research Diagnostics Inc., Flanders, N.J., U.S.A.). For competition assays, indicated concentrations of Salp15 or P11 were added to sCD4-HRP and incubated with plate bound P11 (0.1 μg). To estimate the effect of dithiothreitol (DTT) treatment of Salp15 on binding to sCD4, 0.5 μM Salp15 was treated with 10 mM DTT overnight and immobilized onto microtiter plate followed by blocking and incubation with sCD4-HRP.
Dissociation constants were determined by non-linear curve fit. The results are expressed as the mean±S.E. of 3 to 5 individual experiments.

The test system of another test is AP-1 DNA binding. The settings on record: Anguita et al., 2002; cited from earlier work.
For the next test, the target named is T2, HIV gp120 binding to CD4 (Homo sapiens, UniProt P01730).
T2 construct: coated with 0.05 uM sCD4 (D1-D2 domains)
In words: gp120-HRP binding to plate-coated sCD4 (D1-D2). The settings on record: 0.05, 0.5 and 5 uM Salp15. The procedure: Ninety-six (96) well plates were coated with 0.05 uM sCD4 (D1-D2 domains) in coating buffer (pH 9.6). The plates were washed 2× and blocked with 200 uL of PBS+10% FCS. Samples were then added containing gp120-HRP plus 0, 0.05, 0.5 and 5 uM Salp15 in PBS+10% FCS. KLH was used as negative control at 5 uM. The plates were incubated for 2 hours at room temperature and washed 4×, followed by incubation with horseradish peroxidase substrate and stop solution from KPL.

A further test deals with CD8+ T cells. As to the kind of experiment: Lipid raft reorganization (CTB594 staining) in anti-CD3/CD28 activated CD8+ T cells. It counts as cell-based, mouse. The settings on record: Salp15 pretreatment. As to the method:
For the visualization of lipid rafts, phospho-tyrosine, and cytoskeleton reorganization, CD4^+, CD8^+ or Jurkat cells were cytospun for 10 minutes at 1000 RPM onto positively charged microslides (Fisher Scientific, Hampton, N.H., U.S.A.). The cells were fixed with 3.7% paraformaldehyde (Sigma Chemical Co.) for 15 minutes and stained with CTB594 (Molecular Probes, Eugene, Oreg., U.S.A.), AlexaFluor488 labeled phalloidin (Molecular Probes) or (1:50) biotin-conjugated anti-p-Tyr (PY99) followed by Streptavidin-AlexaFluor594 (1:100, Molecular Probes). For p-LAT and p-PLCγ1 staining, fixed cells were treated with PBS containing 0.1% Triton-X 100 and 100 mM glycine for 15 min at room temperature and stained using rabbit p-LAT (Tyr^191) or rabbit anti-p-PLCγ1 (Tyr^783) probed with anti-rabbit IgG488 (Molecular Probes).
For receptor capping studies, mouse primary B and CD11^+ cells were purified by positive selection using biotin anti-mouse CD45R/B220 clone RA3-6B2 and biotin anti-mouse CD11b clone M1/70 (BD Biosciences Pharmingen) respectively, followed by incubation with magnetic microbeads. The cells were analyzed for receptor capping using 25 μg/mL anti-mouse IgM and 25 μg/mL anti-mouse CD16/CD32 respectively, cross-linked with 25 μg/mL of anti-rat IgG594 for 10 min in the presence or absence of 50 μg/mL of Salp15. […]

Take “Salp15: secreted salivary protein from Ixodes scapularis, SEQ ID NO: 2; recombinant His-tagged, produced in Drosophila S2 cells”: the “CD4 binding after DTT pre-treatment compared to control Salp15” value in the test with sCD4 is recorded as “equivalent binding levels”. Also, the “AP-1 DNA binding activation” value in the test with AP-1 DNA binding is given as “does not affect”. For the same substance, in the test with HIV gp120 binding to CD4, the “Inhibition of gp120 binding to CD4” value is listed as “concentration dependent inhibition”. The Lipid raft reorganization result in the test with CD8+ T cells is on record as “unaffected”.
